Data from PMC9478642.

B1: human T-plastin, full length, wild type [human] / F-actin (filaments of α-actin) [not stated] (parent)
chain 1: MDEMATTQISKDELDELKEAFAKVDLNSNGFICDYELHELFKEANMPLPGYKVREIIQKLMLDGDRNKDGKISFDEFVYIFQEVKSSDIAKTFRKAINRKEGICALGGTSELSSEGTQHSYSEEEKYAFVNWINKALENDPDCRHVIPMNPNTDDLFKAVGDGIVLCKMINLSVPDTIDERAINKKKLTPFIIQENLNLALNSASAIGCHVVNIGAEDLRAGKPHLVLGLLWQIIKIGLFADIELSRNEALAALLRDGETLEELMKLSPEELLLRWANFHLENSGWQKINNFSADIKDSKAYFHLLNQIAPKGQKEGEPRIDINMSGFNETDDLKRAESMLQQADKLGCRQFVTPADVVSGNPKLNLAFVANLFNKYPALTKPENQDIDWTLLEGETREERTFRNWMNSLGVNPHVNHLYADLQDALVILQLYERIKVPVDWSKVNKPPYPKLGANMKKLENCNYAVELGKHPAKFSLVGIGGQDLNDGNQTLTLALVWQLMRRYTLNVLEDLGDGQKANDDIIVNWVNRTLSEAGKSTSIQSFKDKTISSSLAVVDLIDAIQPGCINYDLVKSGNLTEDDKHNNAKYAVSMARRIGARVYALPEDLVEVKPKMVMTVFACLMGRGMKRV
chain 2: not shown

Variants of: B1
Assay: sequential low-speed/high-speed F-actin cosedimentation assay
Conditions: with F-actin (filaments of α-actin); 5 μM actin, 2 μM plastin; read off a plot; scale: proportion of T-plastin in low-speed pellet

Variant	response
chain 1 F191A	0.04

Same assay, conditions: with F-actin (filaments of α-actin); 5 μM actin, 2 μM plastin; read off a plot; scale: proportion of T-plastin in low-speed plus high-speed pellet

Variant	response
chain 1 F191A	0.42
